{"source": "patent US20060239998A1", "about": "(D COLLEN RESEARCH FOUNDATION VZW, published 2006)", "binders": {"B1": {"name": "Fab fragments of Ab 14C12 (Fab, V domains shown)", "VH": "EVQLQQSGPELVKPGASVKLSCKASGYTFTSSVMHWLKQKSGQGLEWIGYINPYNDGTKYNEKFTAKATLTSDKSSSTVYMELSGLTSEDFAVYYCARSGGLLRGYWYFDVWGAGTTVTVSS", "VL": "DLVLTQSPATLSVTPGDSVSLSCRASQDITNTLHWYHQKSHESPRLLIKYVSQSISGIPSRFSGSGSGTVFTLSINSVETEDFGVYFCQQSTSWPYTFGGGTKLEIKR"}}, "target": "human monoclonal antibody BO2C11, FVIII-specific IgG4kappa inhibitory antibody against the C2 domain", "test": "cell-based or functional assay"}
{"binder": "B1", "values": [{"measurement": "neutralisation of BO2C11 inhibitory activity (chromogenic assay)", "value": "50 % neutralisation at 1/8 BO2C11/Fab molar ratio"}]}
